Target: Native Trypsin (abcam)
Experiment: cell-based or functional assay

B1: Trypsin 1/Trypsin 2-Dual-L4-Ab5 (antibody, part only; not given: light chain variable domain, V domains shown, part only)
VH: QVQLVQSGAEVKKPGASVKVSCKASGYTFTDYAISWVRQAPGQGLEWMGWISASTADTNYAQKLQGRVTMTTDTSTSTAYMELRSLRSDDTAVYYCARQDEVVGKMTYYIGTDVWGQGTTVTVSS
IC50 Against 0.25 nM Native Trypsin: 4.8 nM
